Test results reported in patent US20170174700A1.

Experiments:
[1] = molecular target: streptavidin (UniProt P22629); experiment: release from M280 Streptavidin Dynabeads by 5 mM biotin or bis-biotin, fluorescence of supernatant
[2] = molecular target: streptavidin (UniProt P22629); experiment: BLI (Octet), streptavidin biosensor tips, conjugate in solution, 25 C
[3] = molecular target: streptavidin (UniProt P22629); experiment: release from streptavidin beads by biotin

streptavidin, sequence (P22629 37-163 limits assumed): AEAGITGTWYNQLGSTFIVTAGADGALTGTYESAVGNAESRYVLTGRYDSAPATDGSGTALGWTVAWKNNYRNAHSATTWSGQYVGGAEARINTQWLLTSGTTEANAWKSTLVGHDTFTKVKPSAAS

Detachment [1] [%]	Kd [2] [pM]	koff [2] [s⁻¹]	kon [2] [M⁻¹ s⁻¹]	Detach. [3] [%]	Substance
85					18-Ab (goat anti-mouse IgG linked to biotin derivative 18) (antibody)
	0.00595	1.43e-07	2.41e+07	0	Biotin-Ab (antibody)
16					DSB-X-Ab (goat anti-mouse IgG linked to DSB-X) (antibody)
